Results reported in the RNAGym collection of RNA variant scans (doi:10.1073/pnas.2313332121).
This sample holds only a part of the variants without activity.

B1: TPR 5TU (parent)
chain: GGAUCUUCUCGAUCUAACAAAAAAGACAAAUCUGCCACAAAGCUUGAGAGCAUCUUCGGAUGCAGAGGCGGCAGCCUUCGGUGGCGCGAUAGCGCCAACGUUCUCAACUAUGACACGCAAAACGCGUGCUCCGUUGAAUGGAGUUUAUCAUG

Variants of: B1
Experiment: polymerase ribozyme fitness, log enrichment relative to wild type (log ratio); higher = more active; in vitro selection for triplet polymerase activity
Method in brief: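 Fitness is a logarithmic measure of how a genotype enriched relative to the wild type, with replicate averages weighted by inverse variance. The logarithm uses base 2, and enrichment came from Illumina sequencing of input and output libraries. Those libraries were PCR-built, transcribed mutants of each subunit of a heterodimeric triplet polymerase ribozyme, passed through one triplicate in vitro selection round that included frozen incubation at −7 °C, gel excision of extended constructs and streptavidin-bead capture. Genotypes were kept only if they had ≥10 input reads and ≥1 read per output.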

Variant | polymerase ribozyme fitness (log ratio)
A17U C96A | -0.735
C18G C63G G68U G71A U78G C85G G100A G141U | ≤ -4.2
A17U A20C A26C C93U C131U | -2.3
C18G A21C A49C C93A | ≤ -4.2
A17G A21G A52U U56A A91G | -4
A17U A40G C54U G83A A91C G126C | ≤ -4.2
A17G C125A | 0.215
A17U C105A | -1.28
A17G U101A C105G | -3.18
C18G G50U G88A | -4.08
A17U U33G A52C | ≤ -4.2
A17G A21G U90C A147C A150U | ≤ -4.2
A17U A24U G83C | 0.0208
A17U C79G C87U U144G | ≤ -4.2
A17U U33A U45A C57G G70C C87A A98U | ≤ -4.2
A17G A40C G48C | -1.5
C18A U56A G92U C105U C114A U144G | -3.79
A17G U61A G71A G143A | ≤ -4.2
C18G A26U C35U U78A C99G U135C A147C | ≤ -4.2
A17U G48A C51G U55G C96G C105U C118U G136U G141U | ≤ -4.2
A17G C79A G80C U109C | ≤ -4.2
A17G G84A | -0.469
A17G A24C A41U A91U A98G | ≤ -4.2
A17G C69G C85G A107C A122G | ≤ -4.2

Variant | polymerase ribozyme fitness (log ratio)
A17U G50A C87G G141A | ≤ -4.2
C18A A89G U90G A97G | ≤ -4.2
A17U C51G G83A U134C | -3.2
A17G G50U C95U G124C G141A | -0.476
C18G C36A C96U A138U | -4.03
C18A A20G G46C U56C G94C C105G A122U | -0.89
C18G A21U A29C A37U C57U C95U U127G U148G | -3.75
A17G C38U C57A C63A A115G U144A | -1.28
A17U C87U U90C C99G | -3.69
A17U C54G C96U | -2.08
C18G G80U C116U | -1.62
A17U U55A G84C C95G U148A | -3.23
A17G U31A U90C C93U C99G C125A A137C G143C | ≤ -4.2
A17G A26C A40U A47C G59A G68A U109G C116G A119C | ≤ -4.2
C18G C96U | -1.12
A17U G94C C95U C105U | -0.248
A17U C96G A142U U146A | -2.11
A17U C85A | -1.17
A17U A47G C57U G74C U77C U82A G83A U102G A150G | ≤ -4.2
A17G U90C C93U C105G A122G G143C | ≤ -4.2
A17G A26C C32U G59A C75U | ≤ -4.2
A17U C116U | -0.46
A17U C72U C99U | -1.38
A17G G71A | -3.06

Variant | polymerase ribozyme fitness (log ratio)
C18G A52U U82A | -3.02
C18A A19C A40C C85U | 0.244
C18G C57G G80U C87A U127C G128C | ≤ -4.2
C18G G84C G126U | -2.27
A17U A20G C63A G92A A150U | -2.12
C18G G84U G117U A121G | -2.06
A17U A24G A26G A47G G50A G65C U111C A142U | ≤ -4.2
A17U C51A G94U A138G A150U | ≤ -4.2
C18G A21C A52G G84U G133C U134C | -4.07
C18G A137G U145G | -2.16
A17U | -0.256
A17U A19U A37U U53A G58A C95A A121G A122C | -3.75
A17U C38A U44A G70C U82C C95U | ≤ -4.2
C18G A52C C69G C75G G94A C95U A113U | ≤ -4.2
A17U C93A | -2.74
A17U A23U C36G C57A G70U U78C C85U C103G A147C C149U | ≤ -4.2
A17G U53A C99G U130C | ≤ -4.2
A17G C87A C103U | ≤ -4.2
A17U A40U C123U | -0.36
A17U C35U A97U G141A | -1.34
A17G C18G A64G C85A G100A A106U A119U | ≤ -4.2
C18A C85A G112C C116U | ≤ -4.2
A17U A21U G67C C76U A91U C118G | ≤ -4.2
C18A A39C G58C G84A U145G | -3.36

Variant | polymerase ribozyme fitness (log ratio)
A17G A20U A37G U53G A98U A106U G126C G136C G143U | ≤ -4.2
A17U A21U U55A A91C C95G A98U C108G | ≤ -4.2
A17U G80C C93A U101G | ≤ -4.2
A17G C32A A49C G83U A107G G143U | ≤ -4.2
A17G C85G | -1.33
C18G G50A C96G A121C | -2.18
A17G C132G | -3.28
A17U C32G G48A C79G G84U G86U C108U | ≤ -4.2
A17U A29U G74C G124U | ≤ -4.2
A17G U145C | 0.174
C18G G50A C76U A115G A119G | -3.18
A17G A52U A64U G65A G86C A107C G128A | ≤ -4.2
A17G C32G C76U | ≤ -4.2
A17G C38G C51A U78G U90G C131A | ≤ -4.2
A17G C72A U77G C79U U109G | ≤ -4.2
A17G C108U | -3.09
C18G A23C G34A A66U G84U U135A | ≤ -4.2
A17G A24U A37C A41U G84A U101C C105A U111G C118U | ≤ -4.2
A17U U53G C57U G59C G117U | -0.451
A17U A30U U55C C116U | -4.01
A17G U134G | -1.76
A17U A21C U44A A49C C72A U82A U134A | ≤ -4.2
C18G A28U A66U G94U C95A | ≤ -4.2
A17U A20G G42C C85U G128C | ≤ -4.2

Variant | polymerase ribozyme fitness (log ratio)
C18A A21C A37C G81A C87G | ≤ -4.2
A17U G94A | -1.24
C18G A19G A20U C57U G68C G141A | ≤ -4.2
A17G C93A A106G | -1.94
C18G C35A G46C G58C C95G A113U | ≤ -4.2
A17U C93G U102A A107C G143A | ≤ -4.2
A17U A26C C38U G83A G124U | -3.97
A17U A29C A41G G59C C85G | ≤ -4.2
C18G C35A C76U G83C G84U G88A G141U | ≤ -4.2
C18G A19U G62C C85U C116A | -1.81
A17G G46A C69A A121G | -3.45
C18G G92C C129U A150U | -3.54
A17U C87G | -3.75
A17U G46U G84A C105U | -0.266
C18G A29U U31G U44C A49U C76U A98G C118A | ≤ -4.2
C18G A41U A47C A49G G86A U104G | -3.44
A17G A22G U56A | 0.0483
A17U A22U A52G G92C A115G | -2.67
C18A C69G C96U C103A | -2.88
A17G A37U C51U | -2.83
A17U A52U A142C | -3.3
A17G U45G G80U | ≤ -4.2
C18G G25C U33C C108G | -3.95
A17G A37U U82C C96A | -2.2

Variant | polymerase ribozyme fitness (log ratio)
A17G G84A A147C | -0.273
A17U C69U G84C A97G | ≤ -4.2
A17G G59U A97C C99G | -2.61
A17G C129G | -3.57
A17G C38U G81A C96A | 0.341
C18G C51U C87G C99A U101C C118U G136A | ≤ -4.2
C18A G58A G86U A119U | -2.06
A17G C18U A40C C99G | -3.19
A17G C27U A49U C79A G83U C87U A120U | ≤ -4.2
A17G A29U G42A C87U G100U A110C A115C A120G U134A | ≤ -4.2
A17U C51U U55A U78A G81C C123G | ≤ -4.2
C18G G59U G84U | -2.51
A17U G25C A29U G48C U53A G70U C93G C129A C131A A150C | ≤ -4.2
A17U A37U G59C G81A A97G C116G | -1.87
A17G G67C G86A | ≤ -4.2
A17U C93U C114A C116G | ≤ -4.2
C18G C116U | -0.663
C18A C27A A40U C87U C118U | -4.17
A17G U45A G50A G62U C79G G86U C103A | ≤ -4.2
A17G A21C C116U | 0.03
C18A G86U C103U U145A | -2.81
A17U G81C U102G U130G G141A | ≤ -4.2
C18G A28U A29U A66G G67C C96U A106C | ≤ -4.2
C18A U55G C85A C118U | -2.09

Variant | polymerase ribozyme fitness (log ratio)
A17U A21G C27G A28U C85A C87U C95G | ≤ -4.2
C18G A52G C87U | -1.15
C18G A49C C57G C87A G128U U146G | ≤ -4.2
A17U A22U U44A G83C C131U | ≤ -4.2
A17G A37U C87U C99A C123U | -3.98
C18G G86A C87A A91C A120C | ≤ -4.2
A17U A113U | -1.99
A17U C51U G83C A91U U139A G140A G141A U148C | ≤ -4.2
A17G A28U C32U A39U C57A C95A A110G U144C A147G A150C | ≤ -4.2
A17U A19U C63U G68C C95U C96A G140A | ≤ -4.2
A17U A19U A22G G88U A110G | ≤ -4.2
A17U C57A G83C C99G | ≤ -4.2
A17G U31C C35G G86A A121U | -4.19
A17G U109G G140U | -3.77
A17G A52C | -0.98
A17G C51U A106G A120C A122U | -1.36
A17U C85U U104G | -1.01
C18G C36A C95A C96A | ≤ -4.2
A17U A19U A22U U61A G83A G84A G100U | ≤ -4.2
A17U A40G G94C C132U | -4.03
A17U C54A A89C C99A G136A | -4.03
A17U A37C C93G C96A | ≤ -4.2
A17U A29U C93A G141U | ≤ -4.2
